Series [1] can be described thus: folding stability dG unfold from trypsin proteolysis; higher = more stable. How it is done:
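Folding stability of de novo designed mini-proteins (<80 aa, no Cys; designed by TrROS, TrMRF, ProteinMPNN and the joint model) was measured by cDNA display proteolysis with trypsin and chymotrypsin. Each protease was used at 11 concentrations in a threefold dilution series plus a no-protease condition. K50 was inferred by Bayesian fitting of sequencing counts, and dG unfold was derived against a sequence-predicted unfolded-state K50 (Tsuboyama et al. method). Sequences shown include variable-length N-terminal GS-type padding (SAGGSAGG...) inside a display construct carrying a PA tag. Rows were kept only if the AF2 dimer inter-PAE was >15, to exclude likely homo-oligomers.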

Series [2] can be described thus: folding stability dG unfold (combined trypsin and chymotrypsin); higher = more stable. The gist of the method:
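Bayesian fitting of sequencing counts gave K50 for each design. Unfolding free energy followed by setting this against a sequence-predicted unfolded-state K50 and a shared folded-state K50, either per protease or with trypsin and chymotrypsin combined. The designs, under 80 residues and lacking cysteine, were digested in a PA-tagged cDNA display format at 11 threefold-diluted protease concentrations and without protease, and only those with AlphaFold2 dimer inter-PAE above 15 were kept.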

± gives the half width of the 95% confidence interval.

Consider “SAGGSAGGSAGMEIEVEVDPSTNTVKLTKKIGGKWVEATVTRTPGTGTITLPDGSTLKLTSAGGSAGGSAGG [r11_395_JUSTAS]”, for which the “folding stability dG unfold” value in series [1] is -0.709 ± 0.47 kcal/mol; in series [2], below -1 kcal/mol.

As for “SAGGSAGGSAGMEIPEDWTVVEESEVPDERLVTVHNPKTGELYVVTQPPATGEETVERYLSAGGSAGGSAGG [r11_896_JUSTAS]”, the “folding stability dG unfold” value in series [1] was 0.0248 ± 0.2 kcal/mol; in series [2] it was below -1 kcal/mol.

Regarding “SAGGSAGGSAGMILTEEVTVAVPTLSTADGTRHTTTVPELVVVELKLPPVPPEAVEKLLASAGGSAGGSAGG [r11_318_JUSTAS]”, the “folding stability dG unfold” value in series [1] is -0.0441 ± 0.019 kcal/mol; in series [2] it was -0.887 ± 0.16 kcal/mol.

On to “SAGGSAGGSAGMMEEKLIKEYEDPNGGKKYTIKLVKDPKTGKEKIVKETIEPNKKTTEIKNLSAGGSAGGSA [r18_444_JUSTAS]”, for which the figures for the “folding stability dG unfold” value in series [1] and in series [2] were -0.36 ± 0.21 kcal/mol and -0.365 ± 0.62 kcal/mol, respectively.

As for “SAGGSAGGSAGNMKEVEFTIPGAPPDELADNLPPGIKDVEIERNPEARENGGYSIKAYVDSAGGSAGGSAGG [r11_1002_TrROS]”, the “folding stability dG unfold” value in series [1] was -0.0749 ± 0.17 kcal/mol; in series [2] it was below -1 kcal/mol.

As for “SAGGSAGGSAGNVEEIADQLKPNGYKISTVEPTDDQVEVEIYNPESKEPRKFRIPPNQPISAGGSAGGSAGG [r11_428_TrROS]”, the entries for the “folding stability dG unfold” value in series [1] and in series [2] were -0.414 ± 0.24 kcal/mol and below -1 kcal/mol, respectively.

In the case of “SAGGSAGGSAGPITITDIPSEEEAAALIAARPGVEVERKPVTLSEEERWEVTLTLPGEAASAGGSAGGSAGG [r17_542_JUSTAS]”, the “folding stability dG unfold” value in series [1] is 0.157 ± 0.058 kcal/mol; in series [2], -0.722 ± 0.18 kcal/mol.

For “SAGGSAGGSAGPKWKQITIPMEPGQSVNEIADEIKDELGPGKRVHVSMHENGWMTIYVRKSAGGSAGGSAGG [r17_20_TrROS]”, the “folding stability dG unfold” value in series [1] was -0.484 ± 0.23 kcal/mol; in series [2], below -1 kcal/mol.

Turning to “SAGGSAGGSAGPPTSILEVKPGGEVTIKEGGTPVTVPSSVPYINLPEGGSAGSVEVPPELSAGGSAGGSAGG [r11_647_JUSTAS]”, the “folding stability dG unfold” value in series [1] is 0.394 ± 0.042 kcal/mol; in series [2] it was -0.314 ± 0.31 kcal/mol.

In the case of “SAGGSAGGSAGTITTTTDPATGEYTVTIPIASGDGTPVGTIPVTVPKSDPSAAAAFIAATSAGGSAGGSAGG [r11_77_JUSTAS]”, the “folding stability dG unfold” value in series [1] is 0.106 ± 0.11 kcal/mol; in series [2], -0.438 ± 0.29 kcal/mol.

As to “SAGGSAGGSAGTIVTPTATYRIEKLPDKRVRIVVGDKEYEVRVGEPFYLPGGVPFEVLDESAGGSAGGSAGG [r11_147_TrMRF]”, the “folding stability dG unfold” value in series [1] was 0.35 ± 0.13 kcal/mol; in series [2], -0.299 ± 0.19 kcal/mol.

With “SAGGSAGGSAGTVTVDPEKGVVYVPLPEPISPEEVIEKRKEPELDVKILSVGENVAVILVSAGGSAGGSAGG [r17_323_JUSTAS]”, the “folding stability dG unfold” value in series [1] is 0.493 ± 0.027 kcal/mol; in series [2], -0.218 ± 0.11 kcal/mol.

For the sequence “SAGGSAGGSAGVPVPGTDVPAEPITVLKKNPDGTVTKLKDESLTLEEIKAKLPGEVEFVGSAGGSAGGSAGG [r17_125_JUSTAS]”, the “folding stability dG unfold” value in series [1] was 0.0884 ± 0.14 kcal/mol; in series [2], below -1 kcal/mol.

For the sequence “SAGGSAGGSAKITIPASQITHVDLETGELLVDHPSGRPIIFRVDPDRPDLILVEDPSGLSLGSAGGSAGGSA [r18_418_TrMRF]”, the “folding stability dG unfold” value was -0.703 ± 0.15 kcal/mol in series [1] and below -1 kcal/mol in series [2].

For “SAGGSAGGSALVRIEFPNGREIEIPNNMPYEQAKDVAVELAEEHGKNGRPFKVKIEEIKPPGSAGGSAGGSA [r18_213_TrROS]”, the “folding stability dG unfold” value in series [1] is 0.439 ± 0.096 kcal/mol; in series [2], -0.511 ± 0.56 kcal/mol.

On to “SAGGSAGGSAMPEPVTITVRVPYEPDEAEAAAERIREEEYPDAKSITVTRDPATGTATFTVNSAGGSAGGSA [r18_390_JUSTAS]”, for which the “folding stability dG unfold” value in series [1] was -0.222 ± 0.18 kcal/mol; in series [2], below -1 kcal/mol.

Regarding “SAGGSAGGSANSSSLPPNYVTPLPITVTDSRPGSYMPLEEREARAQALAEANPGVTVTVVRESAGGSAGGSA [r18_499_JUSTAS]”, the “folding stability dG unfold” value in series [1] was -0.373 ± 0.099 kcal/mol; in series [2], below -1 kcal/mol.

As to “SAGGSAGGSATVIIMVDPDDIEEALKEAPPNSKVMIHNPDNGYMFEITPNKLEIVEPIPPGDSAGGSAGGSA [r18_246_TrROS]”, the “folding stability dG unfold” value is 0.279 ± 0.058 kcal/mol in series [1] and -0.0908 ± 0.23 kcal/mol in series [2].

Consider “SAGGSAGGSAVEEEVERIEKAVGVPIDPGSSVTKVKEGVEPVLPYRMDIKPGVESPELLLLSAGGSAGGSAG [r3_427_JUSTAS]”, for which the “folding stability dG unfold” value in series [1] was -0.908 ± 0.53 kcal/mol; in series [2], below -1 kcal/mol.

As for “SAGGSAGGSDPVVIPVPMDDFSKETIKNFIDEAPDDNRPIQMNFPNGKPIYIQVEPDGDIKPVSAGGSAGGS [r12_1054_TrROS]”, the “folding stability dG unfold” value in series [1] was 0.557 ± 0.041 kcal/mol; in series [2], below -1 kcal/mol.

As to “SAGGSAGGSDWFPIRVEDIEYERDPADGRDSVTIEAQFPGKPHTFTIPPNAPIKPGDELWIPFSAGGSAGGS [r20_49_TrROS]”, the “folding stability dG unfold” value is -1.9 ± 0.8 kcal/mol in series [1] and below -1 kcal/mol in series [2].

As to “SAGGSAGGSGEEIIKKIAESLIPGHPNLKPDKITYDPKTGKITIKTKNPKAAKLLKELDLIKPSAGGSAGGS [r12_623_TrMRF]”, the “folding stability dG unfold” value in series [1] is -0.446 ± 0.28 kcal/mol; in series [2] it was below -1 kcal/mol.

For “SAGGSAGGSGKWMTAKELLKEFKPGKTIMIRMPPGTEIPPNIKPKGTFPGNGWMMIKIPPNDISAGGSAGGS [r12_356_TrROS]”, the “folding stability dG unfold” value was -0.2 ± 0.45 kcal/mol in series [1] and -0.274 ± 0.42 kcal/mol in series [2].

As for “SAGGSAGGSGMEKKTITITIPVPPDRDVTEEEIKETLKPLGYEEVDIEEIKPAGNSYTVTAVISAGGSAGGS [r20_79_JUSTAS]”, the “folding stability dG unfold” value in series [1] was 0.212 ± 0.13 kcal/mol; in series [2], -0.427 ± 0.52 kcal/mol.

Consider “SAGGSAGGSIAPDEPLVLEVEVEEVVPGVGEVLLPEWIAEEFPDAVIEVETDGTPVKVTIYRPSAGGSAGGS [r12_900_TrMRF]”, for which the “folding stability dG unfold” value is 0.743 ± 0.045 kcal/mol in series [1] and 0.0203 ± 0.076 kcal/mol in series [2].

For the sequence “SAGGSAGGSIKVPKNSKVTVLYEKGGKKIEVSGIVDPKTGKILETDSLENLPDAKIVEIKVEDSAGGSAGGS [r12_6_TrMRF]”, the “folding stability dG unfold” value was -0.742 ± 0.15 kcal/mol in series [1] and below -1 kcal/mol in series [2].

In the case of “SAGGSAGGSKFPKKFTVEVYTLTKKLKTPEGKLKTETTVLIEKTEEIKPLPEIDEERVEKVLLSAGGSAGGS [r12_1060_JUSTAS]”, the figures for the “folding stability dG unfold” value in series [1] and in series [2] were 0.166 ± 0.71 kcal/mol and below -1 kcal/mol, respectively.

For the sequence “SAGGSAGGSKIKILFDPNMTLEEAIELAEKLTKEFDAEVELEIIPKPKPKPLPVIDPENPKLLSAGGSAGGS [r12_159_TrMRF]”, the “folding stability dG unfold” value was 0.252 ± 0.028 kcal/mol in series [1] and -0.72 ± 0.3 kcal/mol in series [2].

Consider “SAGGSAGGSKITITIAPGMSEEEAKKLAEELAKEFNIEIEVKIEPLKPVEKKFYVDKETNEIKSAGGSAGGS [r12_159_TrROS_Hall]”, for which the “folding stability dG unfold” value was -0.357 ± 0.19 kcal/mol in series [1] and below -1 kcal/mol in series [2].

As for “SAGGSAGGSMIVVKTENGEEIEISKDALKPGMTAEELKAKLPPGVKKIEIVEVKEVEVEVEEESAGGSAGGS [r20_161_TrROS_Hall]”, the “folding stability dG unfold” value in series [1] was -0.865 ± 0.4 kcal/mol; in series [2] it was below -1 kcal/mol.

With “SAGGSAGGSMKPVLTIPASVTDPEVAIAILREAKAALPEGTQLEVVMPGGAEEELKKAGLILKSAGGSAGGS [r12_992_JUSTAS]”, the “folding stability dG unfold” value is -1.4 ± 0.71 kcal/mol in series [1] and below -1 kcal/mol in series [2].

“SAGGSAGGSMKTALLDDGKTIPLPEEELPPDAGVEEVAKKIPPEAKKLTVKEPDGSTKTVPLASAGGSAGGS [r20_161_JUSTAS]”: the “folding stability dG unfold” value in series [1] is -0.0521 ± 0.2 kcal/mol; in series [2] it was below -1 kcal/mol.

As to “SAGGSAGGSMTETVVLPYPLPPGVPFHIELPDGSKSVSADPETGTLTVLVKKGTEEAVKEALASAGGSAGGS [r12_476_JUSTAS]”, the “folding stability dG unfold” value is -0.508 ± 0.12 kcal/mol in series [1] and -0.989 ± 0.27 kcal/mol in series [2].

For “SAGGSAGGSMTVKKIEIKPPPGGTDLATITTEKVDPSTGKPSLSTSTVTVPKNNPEAIEKFLSSAGGSAGGS [r12_691_JUSTAS]”, the “folding stability dG unfold” value in series [1] was -0.257 ± 0.18 kcal/mol; in series [2], below -1 kcal/mol.

Take “SAGGSAGGSNIVSARPLGDLVLIEIEPGGKPLRAVVRPSELPPNPPIPPGLSYRVEPGSVSDYSAGGSAGGS [r12_1005_TrMRF]”: the results for the “folding stability dG unfold” value in series [1] and in series [2] were -1.09 ± 0.28 kcal/mol and below -1 kcal/mol, respectively.

As to “SAGGSAGGSPPFTITFIDENGKGVKKINLPFDPKKPSVLPLSEEEIKALKEELGPEAKSITLSSAGGSAGGS [r12_514_JUSTAS]”, the “folding stability dG unfold” value in series [1] is -0.658 ± 0.16 kcal/mol; in series [2] it was below -1 kcal/mol.

For the sequence “SAGGSAGGSQKIEITKVEPERGPNGRPYHRVNIEIVIPDGKPRKFDFYFDDPEDLENMTIELPSAGGSAGGS [r20_130_TrROS]”, the “folding stability dG unfold” value is -0.861 ± 0.17 kcal/mol in series [1] and -0.88 ± 0.19 kcal/mol in series [2].

In the case of “SAGGSAGGSSMPLLTKETSESYDPVNNTKTTTERIEEPGSGKFVFTKTTTTYPDGTVTTTLVESAGGSAGGS [r12_115_JUSTAS]”, the “folding stability dG unfold” value in series [1] was -0.336 ± 0.42 kcal/mol; in series [2], -0.652 ± 0.35 kcal/mol.

With “SAGGSAGGSSMPPGWSVTSETVVESIIETPNGPIIKVTTSKTTVTPPNGPPSTYTTTSEDPLGSAGGSAGGS [r12_544_JUSTAS]”, the “folding stability dG unfold” value in series [1] is -0.314 ± 0.13 kcal/mol; in series [2], below -1 kcal/mol.

As to “SAGGSAGGSSSVMTVTVEYPTPAPPVVRRETVEVPDPDGSLSEEELKEKYSPPDAVVTEVVRESAGGSAGGS [r12_611_JUSTAS]”, the “folding stability dG unfold” value is -1.07 ± 0.34 kcal/mol in series [1] and below -1 kcal/mol in series [2].

Regarding “SAGGSAGGSTIREILDALPPGREIDVERHPNNGHYEISIQNPNGPNPTFQIDDPVTKEIAEWISAGGSAGGS [r12_174_TrROS]”, the “folding stability dG unfold” value in series [1] was 0.65 ± 0.031 kcal/mol; in series [2], -0.0634 ± 0.11 kcal/mol.

These data come from the supplement of paper PMC12764529.
